Biological target: 6xHis-MBP-PmARF1^DBD (Penium margaritaceum AB-class ARF1 DNA-binding domain) (Penium margaritaceum)
Assay: SEC-MALS; 6xHis-MBP-PmARF1^DBD at 1 mg/ml in 1x PBS, Superdex 200 Increase 10/300 GL, room temperature

stoichiometry N: 2
Substance: 6xHis-MBP-PmARF1^DBD (Penium margaritaceum AB-class ARF1 DNA-binding domain) (domain or fragment)
